Experimental data taken from paper PMC11098746 (2024).

B1: 17 (protein)
chain: ANIDKVNLARNFLFSYIQKNLYYTRSYFNVAQLFSTLQIFLDQFCYPGLGRCIPYINKCLCYDKSKMKPKTAKSCLNNCGVISLCSGYPYGPGYKIIPNEFINNRKVVTCVVSSLQNKLDRTCGYNKKLRFNENKIYCIPYDLLDMNLAGIYCVNNNKEKIFCKGFLRQIYTNLKEYEILDIAYHNFILNNPCNEHIYDDGTNYKGCQDTSISGRKCLHWNSLNMEKVLPYLYLHNYCRNPEGLSYIYCYVDNNGIITREYCKSRSNIIFNNIAYSREKYFHFDITMKNVADFRIKLDNKPCNQRYFVNNHRINEFTYDKRNYAYHNINGEIALTISFKNFAYNTYYDYKLYICACFKYYYTNDLVICSTDNYKVEIGSFLITKAYTDKDTNVFYLNRQYNLAFNINYEIIKNEIYIIKGDYAYECNHLRIIGNDNIHMITNMNILFNYYKNQNFQKIHPPLEPNKKYSYIYSYFDPILDLSSILRKNELFINPQSSNIIKGYQNVDNLNNDGKTNSKSKFAKNKHMLQNGAP
modifications: bait human Fc-tagged dimer
B2: 1 (protein)
chain: EVESSDSTSFLNLISGQSSSNSDDTVSSSDSRGVVASVSGTVDSDVSRTDSTGNVNSKNSELSETRQNSVEQNNNANSADNSIKIKSAFLKENVGVKITGPCDEGFGLVMVPHIIINVDTRNTDIQLGKKSSEINYGIKLRKKGKDEYEEKVGIDLLKNVCETGKNFKFVAYIKGDELIIKWKVIEEGNIPIDIKKFKIKRMSPPITSIQVFSSMSDEKSFVLENKNYVVTNNMPEKCEALATNCFLSGNIDIEKCYQCSLLVENDAKSDVCYNFISRENKEKLNEERFKVKGSTEYEESVESELKGAIDLLISSFYKSDGENGENVLISFEDLNSALEDDIINFCSLLKLVDLSGTFMNHQIGTTADAFNNIVKLLKEHKEEDEFVLRTKLRNPALCMKNVDDWVKSRCGLLTSDDSYVVIKKNSDTNGKNENNEANDEEYDGVIDLSTNENGNVKSIQFNDDIYCNDDYCNRWKNENNCISKIGVEDQGNCASSWAFASKLHFETLRCMKGYDHLGISALYLTNCAKGKISKRCTEGGNPAEFLEIVSNSGFLPTEFDYPYFYALVENSCPSGLNKWINLWEDVKLFDYKYEPNSIGSKGYSVYKSEMFKDNMDEYVKMIKSEIKNKGSVIAYINAQSVLTYDFNGKNILNMCGSKTTDHSINVIGYGHYKNKEGEEKSYWLVRNSWGYYWGDEGNFKVDMYGPSNCNYHFINTVLVFNIDIPMMNNNENNKKGLYNYFPKYTHEFYHNFYDQNFGSDNKISLINSNGANKNDVNNAYTVHGQSGETEVQPSQLRSTANQDSNRGAVTSDPLRTQPETTSTSVKKMDVFQVLKHVKNSKIKVGLIKYDNDDEIGAHHSCTRAYSFDPEKYDECVEFCRKNWEQCKDKPSPGFCLTKLDESKGCFFCYV
modifications: bait human Fc-tagged dimer
B3: 28 (protein)
chain: GVLSFKFNTIKNLNVHLEIVMYGLFHIYNYKLNFKIVCDNGYYYIFNDCFPCPQGYYNNINIIKTNVDFINKCMKCDKNKATLIEKSSNKADCLCNFGYEYIKNPADPQEFICSPCTRGMYKNTISNKLCDGNACTGNFATSVIGAKNIIESTCFCKPGFYVTYDYRGIEFCKECLLHFYCPGNVIGIQKCPIHNEALQPEKRINFDSLHGCFCKKGYEPINILNINKAGTRDEHYYKLFHNTYADKFKDINPKHICMECDIGYYKDTISFQPCKKCPNQATNKKYGSTSLNDCNTCHSGYYKNINKACSTCLPNHFCVGDLLQKDLDKYSGDAVICPNNAVTKKPYTQNGAFKDCLCIEGYIKNYQESYNINDHCKLVPLNFYKDSISNDLGTPCPVNSITLNVGAKTINECLCNKGYFYNVKKQQCEECPIGFYCPKISSKNNIKKPIKCPKNSASIKKGMYISNNCQCNFGYTKYIHIDNNQALLNNNIIKYDNKKTNKMFYSFLSNNYYNYKNKINYINKAYNNRNLILLRNIQNKNAIYKKKKRKNVLCIRCPPMTYKGTISNDPCEACPLNSRTIESVNNAHIFFCLCNPGYYLHEQMCKPCSFSKLYCTGENIYIISQSLYETALQEIKNIYVSKNNDMYKMILMNLALYDYSQNVNINNNNNNNNNNNIHNNNIYNIYNSINHYNNDNNIFVNPIVNNKLKHHNNIIYPPYNLLNSQVDTIPFLKKKYGNNINIANILDLNSLYKEPIQNNNNLNTILKSFFHKDNENLIYVKYQNFVTCGKNTVIPLGVDSSYTFDDCKCKKGYYLKSKDINNAIKICEPCKTGTFKNYVGDDTFCLHCPPKSTSLEGSIYPTHCFCKGGFFYSKGYCLECLEGALCKGGLNKNVMQRMKFNMENILITEKDHIKPHSNKNYYLDKSVIDVVDVSEWKFIKCPIKGACLEKNKCHKSMNNYLCIECAKGYTNSFMTSLCVKCPNNIANM
modifications: bait human Fc-tagged dimer
B4: 52 (protein)
chain: AEEHEITHKTYFDITIDDKPLGRIVFGLYGKVAPKTVENFVSICKGTVVDGKMLHYTNSIFHRIIPNFMAQGGDITNFNGAGGLSIYGKKFEDENFKVNHAKRGLLSMANAGKNTNGAQFFILFIPTPWLDGRHVVFGEVVEGLDKLVHIEAVGTDSGEPLKRVLVKESGELPL
modifications: bait human Fc-tagged dimer
B5: 56 (protein)
chain: FLRNKEHANLINSYNDIVEDINIKKEEKSSSEPPFIPIKNKIDNVHTKNNNQYNLHNNKANKAHLTYGTHTSFLQNCAINDCVDVDNKDSEINNIAKEKDDNNNNNGAKQIEEKNKINKADLHRQNELNLQSGKNEQDINKNEKGKQDISNSNAENKKDVKEGVKELEEKKKEEKISDDHKVEENKKSDDHKVEENKKSDDHKVEENKKSDDHKIEEVKKVEEHEEDEEEDKKEKKSENKNKDENKDENDEDNDEISDEDEVDDDVEEDKNENDDIDDDKKETDKTHLEEEENEIIEKEFSDKKKNGKNKDTKKEKSKDTEKEKSKDIEKEKSKDKEKEKSKDKEKEKGKDKEKEKSKDIEKEKEKDKDIEKEKSKDTAKEKEKDKDIEKEKSKDMEKLKNKQNDEKKKDDNEKKKNDKQDIHDDNDDENDMEEIEENDDEEDEDEDMENKKKKKKGKNGNENGNENGAENGNENGNENGNENENKNEAENENENENENENGNENENEKENEKDKNIKEIENVANANKENYEKINKNSEITITKSNIDIYNNNRNNDIDKVNNHIFTNQQKKHNLHNEQNKFNEALNVATNHKNHYEEKKKYESNMFNVDKRMHKNLASMDTILHNLNDKLSHHKDLKNRELKLKFEAMSRIKEYKIYNELIQKSVEILTLRLTKINDELKKLKDISENALQKYINEKGYGLMKHYNFPEYNKLEEEKIMKRSKITWNEKKSHHLYCPMECNKERCYNRPRGPTQCYKLEQIGRNIETICEPFINEHNGACRPDFHHCAIAEPERNKKYSIYATDDVHFVPSQFVTIKGYNLHECLQFLVVKKNSACGPMTIEKNLMESEEILKEPVLSKVLYNEILFENIKISTPGEYNICLAQFYQDPEKDDILSENSANKYKKKKKNDMKVLGIDTIGTLYVLPLHEKQKTG
modifications: bait human Fc-tagged dimer
B6: 16 (protein)
chain: NNLDKNKNFIQYKNFKKNKAYKYKNNNNNIIIINSHSHSNSHSNSHSHSNSHSNSHSHSNSHSNSHSHSNSHSHSHSNSHSNSHSHSSTQNSLYHDTNQANFLKPTSFFLYKHHVYFNQKYKKDPNILNKLKVPRNHIFHINKCDLNYYIQNYEFFFFFPDYYEYSHLYIRLDKLFYFQRCGCDTNIKKTKKRNQNIFNNMLGMKEKDTYLQNEICDIYWNYLKDDNTYDKYNFAIINYIKNIIKKMYRYLYIYKVFVLKQFYRIVYYNQGIRNFYYMLFSYIYNKGSIIYNYNQMYFKKHRKKQTIIRSKRFMNEHIKEEDVDYNIVKDEKDKSIQSTEQKSYLKNNAIQYFQCFLDKAMENKNAENELDKWIDPQSKSCYCSEEFAEPCTSEDLVDINNINQIMDNAFCEYNNNDNNNNDNNKNNNNNINNIINIYDNNILGDNVKNIFVALSEYKILQCNDKEKKDIIKKEQLYNYCKYGLNIWDNKNMYDYLNCLNVISYNKKDDKTCIRKCENIKKLCNIVAQFYSFEVCKKYYENNKHTEDIYINNFKYFSDHCKYIDPTNRGLVLCKHKNVECVYSQWSEWSTCSKTCIENEYDTNSARTRTRILLNKFEVPSKSCSFIINEKNNLMDINFCSYLPFCNKNNDMKKKDDERIMPFVISIKEIEKLNTLKYLNNDDNDLLNENYKNYESVHKNNECKVTDMYQYEYAISYNEKNKACSCPNNQAPCYFKDIYNSESWKKSLHILCKHNPHINVITADYIIIDCNMAISIKKKEIAVNTYLAMTFNCHSDIFQYIFCAKNIQSIRTN
modifications: bait human Fc-tagged dimer
B7: 12 (protein)
chain: SDTFRVFEDFDVRRKNKIWCCNLNHEKSYFHNKAINTAYKNRVLKESILLNLDLDMKKYKDNIITRKKTPENIYKEIYENNYEMKYDEDIPNNMAEEKRDEKEVIEHLEIDEKNGKQYKSDINKPVSLSHLKQYKNIYVNNNNKINKKKSIDKHLPSYNLERKNNKYLNFLLVDNRNEAYTFMVPMKFYINHEMYNIADEEYNKLMEDNSVDVYLNNILVEYKYENFEIKEGEVDGEVEGEGEVEGEVEGEVKGKVVEGIENNMNEEEKYNKDNKDKENQINSNGQDENTEFQENDNNDAVIMKYT
modifications: bait human Fc-tagged dimer
B8: 41 (protein)
chain: VYNVKTQKNEGIIIDKEGKENDNGNSDRNTPNNNNRLNRMTLNKEMYEKHNKMNNEEDNNKNINYDLSNLKDGMKKKHFGSNSAEDKTNKKSSINSVLEKYQHTKHEEKNLQNLNKNMMTHENDDSMKSIFISEESFESAKNVCQFIVMQNDYFKNFCNIASLVYDIEKLKKNNHKIYEEILSNSYENNNGAKFKLLKEINHAKVFKEMDNTNPKFSILFLYDKFCYGGIPLACSNLMKYDNVFDINEQSETTNKPDDNVNMEEMENYIINQAGMENGFEENVADLTQE
modifications: bait human Fc-tagged dimer
B9: 18 (protein)
chain: KENKNDNFLNGIYKLQNIWRNTALGELDLKKANIENAEGIIEKFNDANKADFNQHPHFRSKLSFLEHKNHKDMGIVTNHQNKDHKKNEYTSEEIIDMKPQLASQEMWRKGENFYMHGATNTNEQNDDEDLFESFHKNHNSNIKINSPCFDLQDKEMCSNNKECFYDDAYKACFQNCALVNEKKCSLYSECKHTPNGCQNEGYLNIQVFGSNLGGDVRACELFESEGSCYLMEKLFKKLSEEKKETSFNCVWISYKHELRSYDDENEPKENNDNIVALENKNKYMYMNNVESIHNNHHLENPYHEDIKHNKHKSFNYHVLSSSVPRQIAKNEKFLSLLQLNLKGKKKEKNKKKKKDDEDDDDIDEEDDDLDIEGKNNEFNADEEENSKDLKNNNIDDNEEDGTTDEDDLFNNKKKKKNNNNNNANNNNNKNKNKQNTNKKNNKIINEFDDDIDEVSEENLLNDEEKKQNKIKNKNINEANNIAENNEIEISSKDLTEQYEDKYNYDKKNNMGTNNNFNNANTFANNKNNLHNKYINHASHTQNEKDILKHNFYGKDNNGAYEIIKVETHICANLNEKPNPSTLLEGALIAENEAQLQKIKKKYKVTDNEICVRPTNSAYVSLIPDKKYYLLGEKIEFKCQEGYKIIGTTNIGVCTGRNIISPNIACESLTNFDDVEKDNIQKMNNIINS
modifications: bait human Fc-tagged dimer

These binders were tested against FGFR4 ectodomain (Homo sapiens, UniProt P22455) (assay: AVEXIS normalised luminescence).

**Q.** For B1, which binding score is on record?
**A.** 0.943

**Q.** For B2, which binding score is on record?
**A.** 1.25

**Q.** Which binding score does the source give for B3 here?
**A.** 0.857

**Q.** How did the binding score turn out when B4 was run?
**A.** 1.22

**Q.** With B5 as the binder, how does the binding score read?
**A.** 0.733

**Q.** For B6, which binding score is on record?
**A.** 1.5

**Q.** B7 was tested. Which binding score did it give?
**A.** 0.891

**Q.** How did the binding score turn out when B8 was run?
**A.** 1.23

**Q.** How did the binding score turn out when B9 was run?
**A.** 1
